Experimental findings from patent US20140170677A1 are described below.

In assay [1] the target is human CXCR4 (Chemokine receptor 4) (human) (UniProt P61073). The assay can be described thus: FACS on Hela cells (endogenous CXCR4), antibody at 10 ug/ml.
Assay [2] shares this target. Briefly: FACS on U937 cells (endogenous CXCR4), antibody at 10 ug/ml.
The target is the same in assay [3]. The assay can be described thus: FACS on MDA-MB-231 cells (endogenous CXCR4), antibody at 10 ug/ml.

Chain of UniProt P61073 (P61073 whole entry): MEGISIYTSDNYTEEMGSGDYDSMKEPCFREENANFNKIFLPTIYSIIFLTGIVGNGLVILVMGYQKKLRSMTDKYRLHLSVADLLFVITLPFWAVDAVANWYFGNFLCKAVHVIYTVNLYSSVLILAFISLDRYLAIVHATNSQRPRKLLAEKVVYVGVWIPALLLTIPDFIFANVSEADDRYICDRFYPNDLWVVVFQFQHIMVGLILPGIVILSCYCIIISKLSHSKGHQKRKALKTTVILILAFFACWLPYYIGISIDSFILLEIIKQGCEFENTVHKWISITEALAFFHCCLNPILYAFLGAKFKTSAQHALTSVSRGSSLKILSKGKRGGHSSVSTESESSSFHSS

B1: anti-CXCR4 I-3859 monoclonal antibody (Mab) (antibody, V domains shown)
VH: QVQLKESGPGLVAPSQSLSITCTVSGFSLTDYGVYWVRQPPGKGLEWLGMIWGDGTTDYNSALKSRLSISKDNSKSQVFLKMNTLQTDDTARYYCARGRQFGFDYWGQGTTLTVSS
VL: DIVMSQSPSSLAVSAGEKVTMRCKSSQSLFNSRTRKNYLAWYQQKPGQSPKLLIFWASIRESGVPDRFTGSGSGTDFTLTISSVQAEDLAVYYCKQSYNLRTFGGGTKLEIK
B1: the MFI in assay [1] is 633 MFI; in assay [2] it was 246 MFI; in assay [3], 59 MFI.
